Reference: US20260008830A1 (FUNDACI CENTRE DE REGULACI GEN MICA, published 2026)

Experiments:
Experiment in all cases: cell-based or functional assay
[1] = target: IL-2 receptor on IL-2 reporter HEK blue cells (Human IL-2 & IL-15 Reporter Cells, hkb-il2bg)
[2] = target: T1, IL-22 receptors R1 and R2 on HEK-Blue IL-22 reporter cells (UniProt Q8N6P7 16-574; Q08334 20-325, limits assumed)
T1 sequence (looked up) 1: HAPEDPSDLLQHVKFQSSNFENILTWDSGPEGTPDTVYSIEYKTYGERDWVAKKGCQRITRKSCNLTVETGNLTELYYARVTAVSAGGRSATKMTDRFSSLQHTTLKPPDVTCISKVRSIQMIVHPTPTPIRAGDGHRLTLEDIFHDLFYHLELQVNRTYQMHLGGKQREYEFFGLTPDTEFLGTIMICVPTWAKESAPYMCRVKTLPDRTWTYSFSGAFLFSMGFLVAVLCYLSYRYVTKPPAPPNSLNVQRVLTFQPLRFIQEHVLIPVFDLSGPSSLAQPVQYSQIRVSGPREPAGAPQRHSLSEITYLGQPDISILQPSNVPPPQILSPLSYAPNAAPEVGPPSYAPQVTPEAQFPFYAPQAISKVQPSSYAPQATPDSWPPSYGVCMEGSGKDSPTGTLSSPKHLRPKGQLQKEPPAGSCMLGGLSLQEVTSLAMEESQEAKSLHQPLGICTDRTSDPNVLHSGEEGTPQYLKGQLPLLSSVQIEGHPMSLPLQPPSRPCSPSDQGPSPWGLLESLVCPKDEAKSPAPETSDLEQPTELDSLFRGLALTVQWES
T1 sequence (looked up) 2: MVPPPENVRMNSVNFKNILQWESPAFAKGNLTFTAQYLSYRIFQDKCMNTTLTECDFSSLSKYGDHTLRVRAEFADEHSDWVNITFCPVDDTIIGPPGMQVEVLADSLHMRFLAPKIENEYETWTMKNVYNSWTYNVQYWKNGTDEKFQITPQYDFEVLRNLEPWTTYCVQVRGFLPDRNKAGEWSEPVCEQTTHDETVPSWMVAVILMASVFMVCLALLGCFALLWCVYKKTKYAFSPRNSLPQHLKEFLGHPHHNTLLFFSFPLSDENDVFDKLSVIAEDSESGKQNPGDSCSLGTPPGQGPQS

[3] = target: T2, IL-10 receptors R1 and R2 on HEK-Blue IL-10 reporter cells (UniProt Q13651 22-578; Q08334 20-325, limits assumed)
T2 sequence (looked up) 1: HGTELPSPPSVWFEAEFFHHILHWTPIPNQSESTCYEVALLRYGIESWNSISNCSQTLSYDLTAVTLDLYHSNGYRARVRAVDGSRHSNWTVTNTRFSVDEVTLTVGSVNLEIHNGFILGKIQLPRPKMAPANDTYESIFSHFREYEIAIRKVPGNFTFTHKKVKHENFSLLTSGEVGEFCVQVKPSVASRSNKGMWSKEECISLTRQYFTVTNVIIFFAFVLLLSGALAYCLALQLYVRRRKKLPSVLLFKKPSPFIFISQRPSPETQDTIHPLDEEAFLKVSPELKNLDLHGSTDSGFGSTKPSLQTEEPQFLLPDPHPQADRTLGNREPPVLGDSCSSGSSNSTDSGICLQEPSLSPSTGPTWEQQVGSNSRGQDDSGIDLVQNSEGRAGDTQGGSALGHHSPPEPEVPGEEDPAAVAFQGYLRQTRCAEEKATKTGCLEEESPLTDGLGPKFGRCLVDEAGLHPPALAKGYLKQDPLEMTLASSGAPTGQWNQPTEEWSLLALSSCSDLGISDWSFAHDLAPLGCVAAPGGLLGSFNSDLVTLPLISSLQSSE
T2 sequence (looked up) 2: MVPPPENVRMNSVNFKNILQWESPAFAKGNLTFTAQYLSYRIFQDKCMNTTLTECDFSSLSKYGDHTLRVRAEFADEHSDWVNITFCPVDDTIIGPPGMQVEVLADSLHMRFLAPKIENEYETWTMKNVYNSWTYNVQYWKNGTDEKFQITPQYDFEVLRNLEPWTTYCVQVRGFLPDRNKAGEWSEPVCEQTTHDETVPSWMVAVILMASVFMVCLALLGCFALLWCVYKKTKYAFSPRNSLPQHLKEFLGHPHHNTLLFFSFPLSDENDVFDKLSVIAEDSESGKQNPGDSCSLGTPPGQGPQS

[4] = target: T1, IL-22 receptors R1 and R2 on HEK-Blue …; remark: listed apart in the source

Chain of IL-2 receptor on IL-2 reporter HEK blue cells (Human IL-2 & IL-15 Reporter Cells, hkb-il2bg) (P14784 whole entry, chain 1 of 2): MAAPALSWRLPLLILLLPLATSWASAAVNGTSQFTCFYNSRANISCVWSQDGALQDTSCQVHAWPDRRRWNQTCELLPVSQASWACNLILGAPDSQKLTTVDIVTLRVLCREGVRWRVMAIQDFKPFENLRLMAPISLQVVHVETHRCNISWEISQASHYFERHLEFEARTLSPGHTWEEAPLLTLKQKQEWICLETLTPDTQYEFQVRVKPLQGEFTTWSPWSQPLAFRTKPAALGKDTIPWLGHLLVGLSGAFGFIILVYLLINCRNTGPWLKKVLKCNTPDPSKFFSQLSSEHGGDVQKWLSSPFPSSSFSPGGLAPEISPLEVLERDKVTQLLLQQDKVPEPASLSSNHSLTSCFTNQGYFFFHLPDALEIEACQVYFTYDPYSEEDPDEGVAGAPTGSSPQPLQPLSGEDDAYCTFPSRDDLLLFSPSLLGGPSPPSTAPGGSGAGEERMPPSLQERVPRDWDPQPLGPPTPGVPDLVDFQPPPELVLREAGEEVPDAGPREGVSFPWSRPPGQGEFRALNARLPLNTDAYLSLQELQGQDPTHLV
Chain of IL-2 receptor on IL-2 reporter HEK blue cells (Human IL-2 & IL-15 Reporter Cells, hkb-il2bg) (P31785 whole entry, chain 2 of 2, further chain): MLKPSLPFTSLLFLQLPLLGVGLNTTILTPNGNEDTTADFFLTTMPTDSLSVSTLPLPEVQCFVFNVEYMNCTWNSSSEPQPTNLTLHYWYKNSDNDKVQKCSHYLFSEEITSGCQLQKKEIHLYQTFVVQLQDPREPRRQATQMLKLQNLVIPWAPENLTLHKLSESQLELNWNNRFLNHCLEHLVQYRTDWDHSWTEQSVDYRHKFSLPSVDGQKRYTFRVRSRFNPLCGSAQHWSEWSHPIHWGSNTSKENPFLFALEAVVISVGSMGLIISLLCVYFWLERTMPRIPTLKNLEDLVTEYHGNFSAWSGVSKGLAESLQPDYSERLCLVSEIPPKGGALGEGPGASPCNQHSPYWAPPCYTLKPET

B1: ORK2-011 (foldikine-2, two 8 aa InterLinkers GGGSGGGG) (ligand)
chain: LRPRDLISNINVIVLELKGSETTFMCEYADETATIVEFLNRWITFCQSIISTLTGGGSGGGGTKKTQLQLEHLLLDLQMILNGINNYKNPKLTRMLTFKFYMPKKATELKHLQCLEEELKPLEEVLNLAQSKNFHLRPRDLISNINVIVLELKGSETTFMCEYADETATIVEFLNRWITFCQSIISTLTGGGSGGGGTKKTQLQLEHLLLDLQMILNGINNYKNPKLTRMLTFKFYMPKKATELKHLQCLEEELKPLEEVLNLAQS
B1 was tested, and the “EC-50 (IL-2 reporter HEK blue cells, SEAP, absorbance 630 nm)” value [1] was 171 pM.

B2: 3dlq. Pdb sequence-Hydrophobic core stabilised protein (IL-22hydC) (ligand)
chain: ARLDKSNFQQPYITNRMFMLAKEMSLADNNTDVRLIGEKLFHGVSMSERCYLMKQILNFMLEEVLFPQSDRFQPYMQEVVPFLARLSNRLSTCHIEGDDLHIQRNVQKLKDTVKKLGELGEIKAIGELDLLFMSLRNACI
In the case of B2, the “Kd (apparent, HEK-Blue IL-22 reporter)” value [2] is reported as 5.4 pM and the “gain in affinity against IL-22 WT (HEK-Blue IL-22 reporter)” value [2] is reported as 2 fold.

B3: MutSC1_controlcenter_21 (ligand)
chain: KSKAVEQVKNAFNKLQEKGIYKAMSEFDIFINYIEAYMTMNFGGLDYLPNMLRDLRDAFSRVKTFFQMKDQLDNLLLKESLLEDFKGYLGCQALSEMIQFYLEEVMPQAENQDPDIKAHVNSLGENLKTLRLRLRRCHRFLPCENKSKAVEQVKNAFNKLQEKGIYKAMSEFDIFINYIEAYMTMNFGGLDYLPNMLRDLRDAFSRVKTFFQMKDQLDNLLLKESLLEDFKGYLGCQALSEMIQFYLEEVMPQAENQDPDIKAHVNSLGENLKTLRLRLRRCHFLPCEN
In the case of B3, the “activation of HEK blue cells, apparent KD fit (drop against MutSC1)” value [3] is reported as roughly 2.5 fold.

B4: ORK22-014 (Foldikine-22, two polyGly InterLinkers) (ligand)
chain: APISESGEIKAIGELDLLFMSLRNACIGGGGGGGGGGAPISSHCRLDKSNFQQPYITNRTFMLAKEASLADNNTDVRLIGEKLFHGVSMSERCYLMKQVLNFTLEEVLFPQSDRFQPYMQEVVPFLARLSNRLSTCHIEGDDLHIQRNVQKLKDTVKKLGESGEIKAIGELDLLFMSLRNACIGGGGGGGGGGAPISSHCRLDKSNFQQPYITNRTFMLAKEASLADNNTDVRLIGEKLFHGVSMSERCYLMKQVLNFTLEEVLFPQSDRFQPYMQEVVPFLARLSNRLSTCHIEGDDLHIQRNVQKLKDTVKKLG
For B4, the “EC-50 (IL-22 reporter HEK blue cells, SEAP, absorbance 630 nm)” value [4] was 2420 pM.

B5: mutantE_IL22 (A132Y, D43E, S45R, E77Y, T70I, K61W, S64M) (ligand)
chain: APISSHCREDRSNFQQPYITNRTFMLAWEAMLADNNIDVRLIGYKLFHGVSMSERCYLMKQVLNFTLEEVLFPQSDRFQPYMQEVVPFLYRLSNRLSTCHIEGDDLHIQRNVQKLKDTVKKLGESGEIKAIGELDLLFMSLRNACI
B5 was tested, and the “increase in affinity over wt” value [2] was 10 fold.

B6: mutantD_IL22 (K61W, S64M) (ligand)
chain: APISSHCRLDKSNFQQPYITNRTFMLAWEAMLADNNTDVRLIGEKLFHGVSMSERCYLMKQVLNFTLEEVLFPQSDRFQPYMQEVVPFLARLSNRLSTCHIEGDDLHIQRNVQKLKDTVKKLGESGEIKAIGELDLLFMSLRNACI
B6 was tested, and the “increase in affinity over wt” value [2] was 2 fold.

B7: IL22_WT (IL-22 WT expressed in CHO cells) (ligand)
chain: APISSHCRLDKSNFQQPYITNRTFMLAKEASLADNNTDVRLIGEKLFHGVSMSERCYLMKQVLNFTLEEVLFPQSDRFQPYMQEVVPFLARLSNRLSTCHIEGDDLHIQRNVQKLKDTVKKLGESGEIKAIGELDLLFMSLRNACI
With B7 the “EC-50 (IL-22 reporter HEK blue cells, SEAP, absorbance 630 nm)” value [4] was 97.6 pM.

B8: foldikine-22_1 (SCIL22_1) (ligand)
chain: GCRLDKSNFQQPYITNRTFMLAKEASLADNNTDVRLIGEKLFHGVSMSERCYLMKQVLNFTLEEVLFPQSDRFQPYMQEVVPFLARLSNRLSTCMPGGSKTHIQRNVQKLKDTVKKLGESGEIKAIGELDLLFMSLRNACIANGTLDKSNFQQPYITNRTFMLAKEASLADNNTDVRLIGEKLFHGVSMSERCYLMKQVLNFTLEEVLFPQSDRFQPYMQEVVPFLARLSNRLSRLELLPHIQRNVQKLKDTVKKLGESGEIKAIGELDLLFMSLRNACI
In the case of B8, the “apparent Kd in comparison with IL22 WT (HEK-Blue IL-22 reporter)” value [2] is reported as roughly 4 fold.

B9: ORK2-008 (foldikine-2, two 8 aa InterLinkers GPPPPPPG) (ligand)
chain: LRPRDLISNINVIVLELKGSETTFMCEYADETATIVEFLNRWITFCQSIISTLTGPPPPPPGTKKTQLQLEHLLLDLQMILNGINNYKNPKLTRMLTFKFYMPKKATELKHLQCLEEELKPLEEVLNLAQSKNFHLRPRDLISNINVIVLELKGSETTFMCEYADETATIVEFLNRWITFCQSIISTLTGPPPPPPGTKKTQLQLEHLLLDLQMILNGINNYKNPKLTRMLTFKFYMPKKATELKHLQCLEEELKPLEEVLNLAQS
For B9, the “EC-50 (IL-2 reporter HEK blue cells, SEAP, absorbance 630 nm)” value [1] was 251 pM.

B10: foldikine-22_3 (SCIL22_3) (ligand)
chain: GVRLDKSNFQQPYITNRTFMLAKEASLADNNTDVRLIGEKLFHGVSMSERCYLMKQVLNFTLEEVLFPQSDRFQPYMQEVVPFLARLSNRLKKLMASSDHIQRNVQKLKDTVKKLGESGEIKAIGELDLLFMSLRNACIANGTLDKSNFQQPYITNRTFMLAKEASLADNNTDVRLIGEKLFHGVSMSERCYLMKQVLNFTLEEVLFPQSDRFQPYMQEVVPFLARLSNRLSRLELLPHIQRNVQKLKDTVKKLGESGEIKAIGELDLLFMSLRNACI
In the case of B10, the “apparent Kd in comparison with IL22 WT (HEK-Blue IL-22 reporter)” value [2] is reported as roughly 4 fold.

B11: ORK22-012 (Foldikine-22, two InterLinkers GGPPPPPPGG) (ligand)
chain: APISESGEIKAIGELDLLFMSLRNACIGGPPPPPPGGAPISSHCRLDKSNFQQPYITNRTFMLAKEASLADNNTDVRLIGEKLFHGVSMSERCYLMKQVLNFTLEEVLFPQSDRFQPYMQEVVPFLARLSNRLSTCHIEGDDLHIQRNVQKLKDTVKKLGESGEIKAIGELDLLFMSLRNACIGGPPPPPPGGAPISSHCRLDKSNFQQPYITNRTFMLAKEASLADNNTDVRLIGEKLFHGVSMSERCYLMKQVLNFTLEEVLFPQSDRFQPYMQEVVPFLARLSNRLSTCHIEGDDLHIQRNVQKLKDTVKKLG
In the case of B11, the “EC-50 (IL-22 reporter HEK blue cells, SEAP, absorbance 630 nm)” value [4] is reported as 43.3 pM.

B12: ORK2-007 (foldikine-2, two 7 aa InterLinkers GPPPPPG) (ligand)
chain: LRPRDLISNINVIVLELKGSETTFMCEYADETATIVEFLNRWITFCQSIISTLTGPPPPPGTKKTQLQLEHLLLDLQMILNGINNYKNPKLTRMLTFKFYMPKKATELKHLQCLEEELKPLEEVLNLAQSKNFHLRPRDLISNINVIVLELKGSETTFMCEYADETATIVEFLNRWITFCQSIISTLTGPPPPPGTKKTQLQLEHLLLDLQMILNGINNYKNPKLTRMLTFKFYMPKKATELKHLQCLEEELKPLEEVLNLAQS
For B12, the “EC-50 (IL-2 reporter HEK blue cells, SEAP, absorbance 630 nm)” value [1] was 184 pM.

B13: ORK2-010 (foldikine-2, two 7 aa InterLinkers GGGSGGG) (ligand)
chain: LRPRDLISNINVIVLELKGSETTFMCEYADETATIVEFLNRWITFCQSIISTLTGGGSGGGTKKTQLQLEHLLLDLQMILNGINNYKNPKLTRMLTFKFYMPKKATELKHLQCLEEELKPLEEVLNLAQSKNFHLRPRDLISNINVIVLELKGSETTFMCEYADETATIVEFLNRWITFCQSIISTLTGGGSGGGTKKTQLQLEHLLLDLQMILNGINNYKNPKLTRMLTFKFYMPKKATELKHLQCLEEELKPLEEVLNLAQS
B13 was tested, and the “EC-50 (IL-2 reporter HEK blue cells, SEAP, absorbance 630 nm)” value [1] was 190 pM.

B14: ORK2-009 (foldikine-2, two 6 aa InterLinkers GGGSGG) (ligand)
chain: LRPRDLISNINVIVLELKGSETTFMCEYADETATIVEFLNRWITFCQSIISTLTGGGSGGTKKTQLQLEHLLLDLQMILNGINNYKNPKLTRMLTFKFYMPKKATELKHLQCLEEELKPLEEVLNLAQSKNFHLRPRDLISNINVIVLELKGSETTFMCEYADETATIVEFLNRWITFCQSIISTLTGGGSGGTKKTQLQLEHLLLDLQMILNGINNYKNPKLTRMLTFKFYMPKKATELKHLQCLEEELKPLEEVLNLAQS
For B14, the “EC-50 (IL-2 reporter HEK blue cells, SEAP, absorbance 630 nm)” value [1] was 211 pM.
